Laboratory results taken from patent US20040147432A1 (MERCK, published 2004).
Blank lines part the entries; values can stand above or below the binder they belong to. Bridges are numbered along the chain shown (N, C = ends). [ ]: non-standard residue; d: D form. The star is where a group is joined. Pentanoyl(5-guanidino) = NC(N)=NCCCCC(=O)*; hArg = N=C(N)NCCCC[C@H](N)C(=O)O; Nle = CCCC[C@H](N)C(=O)O; GABA = NCCCC(=O)O; βAla = NCCC(=O)O

How the values were obtained:
human MCH-1R [1] = molecular target: T1, human MCH-1R (human, UniProt Q99705 1-353); assay: SPA competition with [125I]-human MCH (Phe13, Tyr19) on receptor membranes
T1 construct: also called MCH-R1
Method: (§1) For the SPA-based assay, WGA-PVT beads (NEN Life Sciences Products) were resuspended in Dulbecco's PBS with calcium and magnesium (500 mg beads in 4 ml PBS). […] The suspension was mixed gently for 20 minutes, 12.3 ml of assay buffer and protease inhibitors were added (final concentration given): 2 μg/ml leupeptin, 10 μM phosphoramidon, 40 μg/ml bacitracin, 5 μg/ml aprotinin, 0.1 mM Pefabloc.
(§2) Coated beads were kept on ice until use. […] Binding reactions were allowed to proceed at room temperature for 3 hours. Quantitation was performed by scintillation counting (TopCount device).

[2] = molecular target: T2, human melanin concentrating hormone type 2 receptor (MCH-2R) (human, UniProt Q969V1 1-340); assay: as above
T2 construct: also called MCH-R2
Method: as §1, §2

human MCH-1R [3] = molecular target: T1, human MCH-1R; assay: cell-based or functional assay
[4] = molecular target: T2, human melanin concentrating hormone …; assay: cell-based or functional assay

T1 sequence (Q99705 whole entry, form in doubt): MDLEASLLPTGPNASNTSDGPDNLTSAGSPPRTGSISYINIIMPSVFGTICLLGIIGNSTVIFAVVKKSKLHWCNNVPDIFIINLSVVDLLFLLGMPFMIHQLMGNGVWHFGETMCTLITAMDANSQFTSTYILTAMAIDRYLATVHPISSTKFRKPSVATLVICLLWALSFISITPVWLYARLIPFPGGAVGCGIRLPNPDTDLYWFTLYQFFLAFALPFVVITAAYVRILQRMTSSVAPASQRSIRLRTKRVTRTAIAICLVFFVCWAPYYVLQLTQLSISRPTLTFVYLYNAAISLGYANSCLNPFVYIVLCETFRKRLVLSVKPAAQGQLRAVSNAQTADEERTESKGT
T2 sequence (Q969V1 whole entry, form in doubt): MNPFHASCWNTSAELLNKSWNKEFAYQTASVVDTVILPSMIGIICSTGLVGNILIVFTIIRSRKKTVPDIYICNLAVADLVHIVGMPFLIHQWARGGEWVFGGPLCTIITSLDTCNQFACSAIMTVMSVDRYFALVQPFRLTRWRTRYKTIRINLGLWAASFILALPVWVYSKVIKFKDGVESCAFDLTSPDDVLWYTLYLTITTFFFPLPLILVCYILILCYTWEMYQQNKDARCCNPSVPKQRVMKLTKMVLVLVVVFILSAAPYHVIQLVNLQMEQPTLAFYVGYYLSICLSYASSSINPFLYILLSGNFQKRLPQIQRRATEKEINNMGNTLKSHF

Binder: Ac-RCML[dA][hArg]VYRPC-NH2 (disulfide 2-11 (inferred), also called D-Ala^10, Harg^11) [SEQ. ID. NO. 36]
IC50 (human MCH-1R [1]): 56 nM | IC50 [2]: 0.9 nM | Activation % at 10 µM (aequorin functional assay) (human MCH-1R [3]): 0.1% | EC50 (aequorin functional assay) (human MCH-1R [3]): > 10000 nM | Activation % at 10 µM (aequorin functional assay) [4]: 74% | EC50 (aequorin functional assay) [4]: 19 nM

Binder: Ac-RCML[GABA]RVYRPC-NH2 (disulfide 2-11 (inferred), also called εAbu^10) [SEQ. ID. NO. 21]
IC50 (human MCH-1R [1]): 2.1 nM | Activation % at 10 µM (aequorin functional assay) (human MCH-1R [3]): 101% | Activation % at 10 µM (aequorin functional assay) [4]: 112%

Binder: RCMLGRVXRPC (Phe(pF)^13, also called Phe(pF)^13) [SEQ. ID. NO. 29]
IC50 (human MCH-1R [1]): 0.6 nM | Activation % at 10 µM (aequorin functional assay) (human MCH-1R [3]): 98% | Activation % at 10 µM (aequorin functional assay) [4]: 100%

Binder: RCMLGRVXRPC (Phe(pNH2)^13) [SEQ. ID. NO. 30]
Activation % at 10 µM (aequorin functional assay) (human MCH-1R [3]): 88% | Activation % at 10 µM (aequorin functional assay) [4]: 70% | EC50 (aequorin functional assay) [4]: 24 nM

Binder: RCMLXRVYRPC (Nle^10 (norleucine)) [SEQ. ID. NO. 9]
Activation % at 10 µM (aequorin functional assay) (human MCH-1R [3]): 106% | EC50 (aequorin functional assay) (human MCH-1R [3]): 15 nM | Activation % at 10 µM (aequorin functional assay) [4]: 103% | EC50 (aequorin functional assay) [4]: 16 nM

Binder: RCMLGXVYRPC (N-Me-Arg^11) [SEQ. ID. NO. 22]
Activation % at 10 µM (aequorin functional assay) (human MCH-1R [3]): 110% | Activation % at 10 µM (aequorin functional assay) [4]: 86%

Binder: RCXLGRVYRPC (Nle^8 (norleucine), also called Nle^8) [SEQ. ID. NO. 5]
IC50 (human MCH-1R [1]): 0.5 nM | Activation % at 10 µM (aequorin functional assay) (human MCH-1R [3]): 105% | Activation % at 10 µM (aequorin functional assay) [4]: 105% | EC50 (aequorin functional assay) [4]: 12 nM

B2: SEQ. ID. NO. 10 (peptide)
peptide: Ac-RCMLSRVYRPC-NH2
modifications: disulfide 2-11
SMILES: CSCC[C@@H]1NC(=O)[C@@H](NC(=O)[C@H](CCCNC(=N)N)NC(C)=O)CSSC[C@@H](C(N)=O)NC(=O)[C@@H]2CCCN2C(=O)[C@H](CCCNC(=N)N)NC(=O)[C@H](Cc2ccc(O)cc2)NC(=O)[C@H](C(C)C)NC(=O)[C@H](CCCNC(=N)N)NC(=O)[C@H](CO)NC(=O)[C@H](CC(C)C)NC1=O
notes: also called Ser^10
IC50 (human MCH-1R [1]): 0.32 nM | IC50 [2]: 52 nM | Activation % at 10 µM (aequorin functional assay) (human MCH-1R [3]): 104% | EC50 (aequorin functional assay) (human MCH-1R [3]): 65 nM | Activation % at 10 µM (aequorin functional assay) [4]: 95% | EC50 (aequorin functional assay) [4]: 44 nM

B3: SEQ. ID. NO. 7 (peptide)
peptide: Ac-RCMLARVYRPC-NH2
modifications: disulfide 2-11
SMILES: CSCC[C@@H]1NC(=O)[C@@H](NC(=O)[C@H](CCCNC(=N)N)NC(C)=O)CSSC[C@@H](C(N)=O)NC(=O)[C@@H]2CCCN2C(=O)[C@H](CCCNC(=N)N)NC(=O)[C@H](Cc2ccc(O)cc2)NC(=O)[C@H](C(C)C)NC(=O)[C@H](CCCNC(=N)N)NC(=O)[C@H](C)NC(=O)[C@H](CC(C)C)NC1=O
notes: also called Ala^10
IC50 (human MCH-1R [1]): 0.59 nM | IC50 [2]: 4.6 nM | Activation % at 10 µM (aequorin functional assay) (human MCH-1R [3]): 104% | EC50 (aequorin functional assay) (human MCH-1R [3]): 31 nM | Activation % at 10 µM (aequorin functional assay) [4]: 97% | EC50 (aequorin functional assay) [4]: 7.7 nM

B5: SEQ. ID. NO. 23 (peptide)
peptide: Ac-RCMLGAVYRPC-NH2
modifications: disulfide 2-11
SMILES: CSCC[C@@H]1NC(=O)[C@@H](NC(=O)[C@H](CCCNC(=N)N)NC(C)=O)CSSC[C@@H](C(N)=O)NC(=O)[C@@H]2CCCN2C(=O)[C@H](CCCNC(=N)N)NC(=O)[C@H](Cc2ccc(O)cc2)NC(=O)[C@H](C(C)C)NC(=O)[C@H](C)NC(=O)CNC(=O)[C@H](CC(C)C)NC1=O
notes: also called Ala^11
IC50 [2]: 9.7 nM | EC50 (aequorin functional assay) (human MCH-1R [3]): > 10000 nM | Activation % at 10 µM (aequorin functional assay) [4]: 36% | EC50 (aequorin functional assay) [4]: > 1000 nM

Binder: RCMLGRVXRPC ((2)Nal^13 ((2')naphthylalanine)) [SEQ. ID. NO. 28]
Activation % at 10 µM (aequorin functional assay) (human MCH-1R [3]): 105% | Activation % at 10 µM (aequorin functional assay) [4]: 90% | EC50 (aequorin functional assay) [4]: 19 nM

Binder: RCMLGRVYRPX (D-Cys^16, also called D-Cys^16) [SEQ. ID. NO. 33]
IC50 [2]: 2.3 nM | Activation % at 10 µM (aequorin functional assay) (human MCH-1R [3]): 76% | Activation % at 10 µM (aequorin functional assay) [4]: 90%

Binder: RCMLXRVYRPC (Sar^10 (sarcosine)) [SEQ. ID. NO. 6]
Activation % at 10 µM (aequorin functional assay) (human MCH-1R [3]): 95% | Activation % at 10 µM (aequorin functional assay) [4]: 94% | EC50 (aequorin functional assay) [4]: 40 nM

Binder: Ac-RCML[βAla]RVYRPC-NH2 (disulfide 2-11 (inferred)) [SEQ. ID. NO. 20]
Activation % at 10 µM (aequorin functional assay) (human MCH-1R [3]): 3.2% | EC50 (aequorin functional assay) (human MCH-1R [3]): > 1000 nM | Activation % at 10 µM (aequorin functional assay) [4]: 92%

Binder: [Pentanoyl(5-guanidino)]CML[dA]RVYRPC-NH2 (disulfide 2-11 (inferred); not fully specified, also called (?-NH2)-Arg^6, D-Ala^10) [SEQ. ID. NO. 34]
IC50 (human MCH-1R [1]): 30 nM | IC50 [2]: 250 nM | Activation % at 10 µM (aequorin functional assay) (human MCH-1R [3]): 4% | EC50 (aequorin functional assay) (human MCH-1R [3]): 2000 nM | Activation % at 10 µM (aequorin functional assay) [4]: 110% | EC50 (aequorin functional assay) [4]: 31 nM

Binder: RCMLGRVYRXC (Sar^15 (sarcosine)) [SEQ. ID. NO. 32]
Activation % at 10 µM (aequorin functional assay) (human MCH-1R [3]): 113% | Activation % at 10 µM (aequorin functional assay) [4]: 91% | EC50 (aequorin functional assay) [4]: 12 nM

The remaining lines, values ahead:

% @ concentration (human MCH-1R [1]): 83 % @ 10 µM | Activation % at 10 µM (aequorin functional assay) (human MCH-1R [3]): 20% | EC50 (aequorin functional assay) (human MCH-1R [3]): > 10000 nM | Activation % at 10 µM (aequorin functional assay) [4]: 49% | EC50 (aequorin functional assay) [4]: 730 nM
Binder: RCALXXVYRPC (D-Ala^10, Harg^11 (homoarginine), also called Ala^8, D-Ala^10, Harg^11) [SEQ. ID. NO. 38]

IC50 [2]: 2.3 nM | Activation % at 10 µM (aequorin functional assay) (human MCH-1R [3]): 33% | Activation % at 10 µM (aequorin functional assay) [4]: 78%
Binder: RCMLXRVYRPC (D-Nle^10, also called D-Nle^10) [SEQ. ID. NO. 15]

IC50 (human MCH-1R [1]): 15 nM | IC50 [2]: 18 nM | Activation % at 10 µM (aequorin functional assay) (human MCH-1R [3]): 42% | EC50 (aequorin functional assay) (human MCH-1R [3]): 4100 nM | Activation % at 10 µM (aequorin functional assay) [4]: 104% | EC50 (aequorin functional assay) [4]: 12 nM
B1: SEQ. ID. NO. 4 (peptide)
peptide: Ac-RCALGRVYRPC-NH2
modifications: disulfide 2-11
SMILES: CC(=O)N[C@@H](CCCNC(=N)N)C(=O)N[C@H]1CSSC[C@@H](C(N)=O)NC(=O)[C@@H]2CCCN2C(=O)[C@H](CCCNC(=N)N)NC(=O)[C@H](Cc2ccc(O)cc2)NC(=O)[C@H](C(C)C)NC(=O)[C@H](CCCNC(=N)N)NC(=O)CNC(=O)[C@H](CC(C)C)NC(=O)[C@H](C)NC1=O
notes: also called Ala^8

IC50 (human MCH-1R [1]): 1 nM | IC50 [2]: 1.5 nM | Activation % at 10 µM (aequorin functional assay) (human MCH-1R [3]): 96% | EC50 (aequorin functional assay) (human MCH-1R [3]): 46 nM | Activation % at 10 µM (aequorin functional assay) [4]: 94% | EC50 (aequorin functional assay) [4]: 12 nM
B4: SEQ. ID. NO. 27 (peptide)
peptide: Ac-RCMLGRVFRPC-NH2
modifications: disulfide 2-11
SMILES: CSCC[C@@H]1NC(=O)[C@@H](NC(=O)[C@H](CCCNC(=N)N)NC(C)=O)CSSC[C@@H](C(N)=O)NC(=O)[C@@H]2CCCN2C(=O)[C@H](CCCNC(=N)N)NC(=O)[C@H](Cc2ccccc2)NC(=O)[C@H](C(C)C)NC(=O)[C@H](CCCNC(=N)N)NC(=O)CNC(=O)[C@H](CC(C)C)NC1=O
notes: also called Phe^13

IC50 (human MCH-1R [1]): 0.06 nM | IC50 [2]: 20 nM | Activation % at 10 µM (aequorin functional assay) (human MCH-1R [3]): 106% | EC50 (aequorin functional assay) (human MCH-1R [3]): 23 nM | Activation % at 10 µM (aequorin functional assay) [4]: 80% | EC50 (aequorin functional assay) [4]: 54 nM
Binder: RCMLLRVYRPC (also called Leu^10) [SEQ. ID. NO. 8]

IC50 (human MCH-1R [1]): 301 nM | IC50 [2]: 9 nM | EC50 (aequorin functional assay) (human MCH-1R [3]): > 1000 nM | Activation % at 10 µM (aequorin functional assay) [4]: 34% | EC50 (aequorin functional assay) [4]: 58 nM
Binder: Ac-RCMLG[Nle]VYRPC-NH2 (disulfide 2-11 (inferred), also called Nle^11) [SEQ. ID. NO. 26]

IC50 [2]: 9 nM | Activation % at 10 µM (aequorin functional assay) (human MCH-1R [3]): 93% | Activation % at 10 µM (aequorin functional assay) [4]: 76%
Binder: RCMLGRVXRPC (Cha^13 (2-cyclohexyl-alanine), also called Cha^13) [SEQ. ID. NO. 31]

Activation % at 10 µM (aequorin functional assay) (human MCH-1R [3]): 23% | Activation % at 10 µM (aequorin functional assay) [4]: 83%
Binder: RCMLXRVYRPC (D-Leu^10) [SEQ. ID. NO. 14]

% @ concentration (human MCH-1R [1]): 70 % @ 1 µM | EC50 (aequorin functional assay) (human MCH-1R [3]): > 10000 nM | Activation % at 10 µM (aequorin functional assay) [4]: 120% | EC50 (aequorin functional assay) [4]: 140 nM
Binder: RCALXRVYRPC (not fully specified; D-Ala^10, also called Ala^8, D-Ala^10) [SEQ. ID. NO. 35]

IC50 (human MCH-1R [1]): 1.6 nM | % @ concentration [2]: 38.5 % @ 10 µM | Activation % at 10 µM (aequorin functional assay) (human MCH-1R [3]): 6.5% | EC50 (aequorin functional assay) (human MCH-1R [3]): 300 nM | EC50 (aequorin functional assay) [4]: 1500 nM
B6: SEQ. ID. NO. 3 (peptide)
peptide: Ac-CMLGRVYRPC-NH2
modifications: disulfide 1-10; not fully specified
notes: positions numbered as in hMCH; also called ?Arg^6
